Common to all, as to assay: co-sedimentation
Assay [1] deals with 28S small mitoribosome subunit (mtSSU) (human (endogenous in HEK293T or 143B)).
In assay [2] the target is 39S large mitoribosome subunit (mtLSU) (human (endogenous in HEK293T or 143B)).
Assay [3] has as its target 55S monosome (human (endogenous in HEK293T or 143B)).

Consider “GTPBP10 (endogenous in 143B, isoform 2) (natural protein)”, for which the percent of total GTPBP10 that co-sediments in assay [1] was 10%; in assay [2], 10%; in assay [3] it was 1 to 2%.
For the substance “GTPBP10 (endogenous in HEK293T, isoform 1) (from UniProt A4D1E9-1 1-387) (natural protein)”, the figures for the percent of total GTPBP10 that co-sediments in assay [1], in assay [2] and in assay [3] were 10%, 10% and 1 to 2%, respectively.

For the origin of these results see publication PMC6265488.
